According to patent US20260274955A1 (JANUX THERAPEUTICS, published 2026):

B1: Phage-732 (peptide)
peptide: YCEGHSSLYLEKCL
B2: Phage-729 (peptide)
peptide: YCDGHVVEYMSKCL
B3: Phage-731 (peptide)
peptide: YCDGHIWPWIEKCL
B4: Phage-727 (peptide)
peptide: YCDGHEAEYMWKCL
B5: Phage-730 (peptide)
peptide: YCAGHLPQYMHKCL
B6: Phage-767 (peptide)
peptide: YCDGHLEVYMSKCL
B7: Phage-769 (peptide)
peptide: YCEGHIEPYMQKCL
B8: Phage-763 (peptide)
peptide: YCFGHAPEYLLKCL
B9: Phage-765 (peptide)
peptide: YCEGHSSVYLWKCL
B10: Phage-766 (peptide)
peptide: YCEGHSWIYIAKCL
B11: Phage-759 (peptide)
peptide: YCDGHLAEYIQKCL
B12: Phage-764 (peptide)
peptide: YCEGHLREYMLKCL
B13: Phage-804 (peptide)
peptide: YCEGHSSAYMAKCL
B14: Phage-770 (peptide)
peptide: YCDGHKPEYMDKCL
B15: Phage-768 (peptide)
peptide: YCEGHRPEYMANCL
B16: Phage-761 (peptide)
peptide: YCAGHSQVYMWKCL
B17: Phage-771 (peptide)
peptide: YCDGHVGAYMWKCL
B18: Phage-800 (peptide)
peptide: YCDGHLLMYMEKCL
B19: Phage-760 (peptide)
peptide: YCAGHSSEYLQKCL
B20: Phage-762 (peptide)
peptide: YCEGHIEQYMRKCL
B21: Phage-544 (peptide)
peptide: YCDGHLPVYMMKCL
notes: on phage, pIII fusion
B22: Phage-576 (peptide)
peptide: YCEGHVLEYRGKCD
notes: on phage, pIII fusion
B23: Phage-581 (peptide)
peptide: YCDGHLEIYMSKCL
notes: on phage, pIII fusion
B24: Phage-539 (peptide)
peptide: YCAGHSEEYMDKCL
notes: on phage, pIII fusion
B25: Phage-511 (peptide)
peptide: YCAGHSPEYMQKCL
notes: on phage, pIII fusion
B26: Phage-516 (peptide)
peptide: YCDGHRLEYLEKCL
notes: on phage, pIII fusion
B27: Phage-519 (peptide)
peptide: YCDGHSEAYMWKCL
notes: on phage, pIII fusion
B28: Phage-584 (peptide)
peptide: YCEGHSLEHIAKCL
notes: on phage, pIII fusion
B29: Phage-535 (peptide)
peptide: YCEGHLDMYVWKCL
notes: on phage, pIII fusion
B30: Phage-585 (peptide)
peptide: YCEGHTPVYMPKCL
notes: on phage, pIII fusion
B31: Phage-510 (peptide)
peptide: YCDGHAQEYMVKCL
notes: on phage, pIII fusion
B32: Phage-580 (peptide)
peptide: YCDGHLAIYIGKCL
notes: on phage, pIII fusion
B33: Phage-518 (peptide)
peptide: YCDGHAQEFIWKCL
notes: on phage, pIII fusion
B34: Phage-542 (peptide)
peptide: YCDGHSQAHMQKCL
notes: on phage, pIII fusion
B35: Phage-509 (peptide)
peptide: YCDGHSVEYKLKCM
notes: on phage, pIII fusion
B36: Phage-546 (peptide)
peptide: YCDGHTSEYMTKCL
notes: on phage, pIII fusion
B37: Phage-533 (peptide)
peptide: YCDGHLPMYMKKCL
notes: on phage, pIII fusion
B38: Phage-512 (peptide)
peptide: YCEGHLPLYMDKCL
notes: on phage, pIII fusion
B39: Phage-514 (peptide)
peptide: YCEGHMPEYLQKCL
notes: on phage, pIII fusion
B40: Phage-536 (peptide)
peptide: YCDGHSQEYMAHCL
notes: on phage, pIII fusion
B41: Phage-577 (peptide)
peptide: YCDGHVAEYRHKCL
notes: on phage, pIII fusion
B42: Phage-507 (peptide)
peptide: YCDGHSVKYMAKCL
notes: on phage, pIII fusion
B43: Phage-540 (peptide)
peptide: YCDGHSEVYMSKCL
notes: on phage, pIII fusion
B44: Phage-573 (peptide)
peptide: YCDGHLPEYITKCL
notes: on phage, pIII fusion
B45: Phage-538 (peptide)
peptide: YCDGHFLTYMTKCL
notes: on phage, pIII fusion
B46: Phage-508 (peptide)
peptide: YCSGHLPEYMWKCL
notes: on phage, pIII fusion
B47: Phage-517 (peptide)
peptide: YCAGHLDQYIEKCL
notes: on phage, pIII fusion
B48: Phage-582 (peptide)
peptide: YCDGHLLEYMSKCL
notes: on phage, pIII fusion
B49: Phage-513 (peptide)
peptide: YCEGHSAAYMQKCL
notes: on phage, pIII fusion
B50: Phage-541 (peptide)
peptide: YCEGHTLEYMWKCL
notes: on phage, pIII fusion
B51: Phage-583 (peptide)
peptide: YCDGHSLEYMVKCL
notes: on phage, pIII fusion
B52: Phage-578 (peptide)
peptide: YCEGHLDQYMTKCL
notes: on phage, pIII fusion
B53: Phage-515 (peptide)
peptide: YCDGHELQYMAKCL
notes: on phage, pIII fusion
B54: Phage-537 (peptide)
peptide: YCDGHSPLYMVKCL
notes: on phage, pIII fusion
B55: Phage-545 (peptide)
peptide: YCAGHNAQYMSKCL
notes: on phage, pIII fusion
B56: Phage-579 (peptide)
peptide: YCAGHTQEYIEKCL
notes: on phage, pIII fusion
B57: Phage-574 (peptide)
peptide: YCEGHRPEYMQKCV
notes: on phage, pIII fusion
B58: Phage-534 (peptide)
peptide: YCQGHLPQYVEKCL
notes: on phage, pIII fusion
B59: Phage-575 (peptide)
peptide: YCAGHTVENMAKCL
notes: on phage, pIII fusion
B60: Phage-543 (peptide)
peptide: YCAGHDQQYMEKCL
notes: on phage, pIII fusion

The binders below were run against T1, Anti-CD28 Fab (SEQ ID NOs: 202, 203) (assay: phage ELISA, Fab on plate;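 further: crude clonal phage supernatants added to wells pretreated with blocking buffer with or without CD28 antigen, then bound phage read out via HRP-linked anti-M13 antibody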).
T1 construct: biotinylated and captured on neutravidin coated plates in the phage ELISA
T1 sequence (VH, as listed by the source, chain 1 of 2): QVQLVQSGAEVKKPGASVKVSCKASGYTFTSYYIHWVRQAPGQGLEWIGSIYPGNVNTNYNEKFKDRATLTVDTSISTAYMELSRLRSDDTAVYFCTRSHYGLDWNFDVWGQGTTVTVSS
T1 sequence (VL, as listed by the source, chain 2 of 2): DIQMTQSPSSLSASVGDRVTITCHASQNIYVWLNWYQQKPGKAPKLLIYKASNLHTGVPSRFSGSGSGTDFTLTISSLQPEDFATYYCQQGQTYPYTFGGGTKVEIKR
Experimental: After panning, phage infected bacteria were plated out and colonies picked into 96 well blocks. Clonal phage was then amplified and separated from bacterial cells via centrifugation.
Clonal phage were harvested as crude supernatants and screened via standard ELISAs. […] Prior to the addition of clonal phage, wells were incubated with blocking buffer and CD28 antigen or blocking buffer alone. Without washing or aspirating, clonal phage supernatants were then added to the wells and incubated for a short time. Wells were then washed followed by detection of bound phage using a horse radish conjugated anti-M13 antibody. Clonal phage of interest were then sent for sequence analysis.

Q: How did the “Anti-CD28 Fab (SEQ ID NOs: 202, 203) signal” value (“Anti-CD28 Fab” for short) turn out when B1 was run?
A: 1.11

Q: With B2 as the binder, how does the “Anti-CD28 Fab” value read?
A: 1.12

Q: For B3, which “Anti-CD28 Fab” value is on record?
A: 1.11

Q: For B4, which “Anti-CD28 Fab” value is on record?
A: 1.13

Q: For B5, which “Anti-CD28 Fab” value is on record?
A: 1.11

What follows are binders tested against Anti-CD28 Fab (SEQ ID NOs: 202, 203) (assay: phage binding ELISA on captured Fab;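 further: clonal phage supernatants added briefly to wells pre-incubated with CD28 antigen or with blocking buffer only, then washed, bound phage read by ELISA using HRP-coupled anti-M13 antibody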).
Target sequence in this assay (VH, as listed by the source, chain 1 of 2): as the sequence (VH, as listed by the source, chain 1 of 2) above
Target sequence in this assay (VL, as listed by the source, chain 2 of 2): as the sequence (VL, as listed by the source, chain 2 of 2) above
Experimental: (§1) Clonal phage were harvested as crude supernatants and screened via standard ELISAs. […] Prior to the addition of clonal phage, wells were incubated with blocking buffer and CD28 antigen or blocking buffer alone. Without washing or aspirating, clonal phage supernatants were then added to the wells and incubated for a short time. Wells were then washed followed by detection of bound phage using a horse radish conjugated anti-M13 antibody.

Q: How did the “Anti-CD28 Fab” value turn out when B6 was run?
A: 1

Q: Which “Anti-CD28 Fab” value does the source give for B7 here?
A: 0.99

Q: With B8 as the binder, how does the “Anti-CD28 Fab” value read?
A: 1.01

Q: How did the “Anti-CD28 Fab” value turn out when B9 was run?
A: 1

Q: Which “Anti-CD28 Fab” value does the source give for B10 here?
A: 1

Q: For B11, which “Anti-CD28 Fab” value is on record?
A: 1.04

Q: With B12 as the binder, how does the “Anti-CD28 Fab” value read?
A: 1.01

Q: For B13, which “Anti-CD28 Fab” value is on record?
A: 0.9

Q: With B14 as the binder, how does the “Anti-CD28 Fab” value read?
A: 0.99

Q: B15 was tested. Which “Anti-CD28 Fab” value did it give?
A: 1

Q: B16 was tested. Which “Anti-CD28 Fab” value did it give?
A: 1.02

Q: B17 was tested. Which “Anti-CD28 Fab” value did it give?
A: 0.99

Q: For B18, which “Anti-CD28 Fab” value is on record?
A: 0.91

Q: Which “Anti-CD28 Fab” value does the source give for B19 here?
A: 1.03

Q: For B20, which “Anti-CD28 Fab” value is on record?
A: 1.01

These binders were tested against T2, anti-CD28 Fab (SEQ ID NOs: 202, 203) (assay: phage ELISA on captured Fab;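 further: ELISA with clonal phage supernatants added to wells preincubated with CD28 antigen or with blocking buffer only, bound phage detected by HRP-conjugated anti-M13 antibody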).
T2 construct: biotinylated and captured on neutravidin coated plates in the phage ELISA
T2 sequence (VH, as listed by the source, chain 1 of 2): as the sequence (VH, as listed by the source, chain 1 of 2) above
T2 sequence (VL, as listed by the source, chain 2 of 2): as the sequence (VL, as listed by the source, chain 2 of 2) above
Experimental: as §1

Q: How did the “Anti-CD28 Fab” value turn out when B21 was run?
A: 1.55

Q: For B22, which “Anti-CD28 Fab” value is on record?
A: 1.48

Q: B23 was tested. Which “Anti-CD28 Fab” value did it give?
A: 1.46

Q: With B24 as the binder, how does the “Anti-CD28 Fab” value read?
A: 1.55

Q: How did the “Anti-CD28 Fab” value turn out when B25 was run?
A: 1.6

Q: Which “Anti-CD28 Fab” value does the source give for B26 here?
A: 1.6

Q: How did the “Anti-CD28 Fab” value turn out when B27 was run?
A: 1.59

Q: With B28 as the binder, how does the “Anti-CD28 Fab” value read?
A: 1.46

Q: For B29, which “Anti-CD28 Fab” value is on record?
A: 1.56

Q: How did the “Anti-CD28 Fab” value turn out when B30 was run?
A: 1.46

Q: B31 was tested. Which “Anti-CD28 Fab” value did it give?
A: 1.61

Q: Which “Anti-CD28 Fab” value does the source give for B32 here?
A: 1.47

Q: How did the “Anti-CD28 Fab” value turn out when B33 was run?
A: 1.6

Q: With B34 as the binder, how does the “Anti-CD28 Fab” value read?
A: 1.55

Q: For B35, which “Anti-CD28 Fab” value is on record?
A: 1.61

Q: For B36, which “Anti-CD28 Fab” value is on record?
A: 1.54

Q: With B37 as the binder, how does the “Anti-CD28 Fab” value read?
A: 1.57

Q: For B38, which “Anti-CD28 Fab” value is on record?
A: 1.6

Q: For B39, which “Anti-CD28 Fab” value is on record?
A: 1.6

Q: Which “Anti-CD28 Fab” value does the source give for B40 here?
A: 1.56

Q: How did the “Anti-CD28 Fab” value turn out when B41 was run?
A: 1.47

Q: B42 was tested. Which “Anti-CD28 Fab” value did it give?
A: 1.61

Q: B43 was tested. Which “Anti-CD28 Fab” value did it give?
A: 1.55

Q: How did the “Anti-CD28 Fab” value turn out when B44 was run?
A: 1.49

Q: B45 was tested. Which “Anti-CD28 Fab” value did it give?
A: 1.56

Q: Which “Anti-CD28 Fab” value does the source give for B46 here?
A: 1.61

Q: Which “Anti-CD28 Fab” value does the source give for B47 here?
A: 1.6

Q: With B48 as the binder, how does the “Anti-CD28 Fab” value read?
A: 1.46

Q: How did the “Anti-CD28 Fab” value turn out when B49 was run?
A: 1.6

Q: With B50 as the binder, how does the “Anti-CD28 Fab” value read?
A: 1.55

Q: Which “Anti-CD28 Fab” value does the source give for B51 here?
A: 1.46

Q: B52 was tested. Which “Anti-CD28 Fab” value did it give?
A: 1.47

Q: B53 was tested. Which “Anti-CD28 Fab” value did it give?
A: 1.6

Q: Which “Anti-CD28 Fab” value does the source give for B54 here?
A: 1.56

Q: B55 was tested. Which “Anti-CD28 Fab” value did it give?
A: 1.55

Q: With B56 as the binder, how does the “Anti-CD28 Fab” value read?
A: 1.47

Q: For B57, which “Anti-CD28 Fab” value is on record?
A: 1.48

Q: Which “Anti-CD28 Fab” value does the source give for B58 here?
A: 1.57

Q: Which “Anti-CD28 Fab” value does the source give for B59 here?
A: 1.48

Q: Which “Anti-CD28 Fab” value does the source give for B60 here?
A: 1.55
